Laboratory results: US20100021479A1 (Bristol-Myers Squibb, published 2010)

T1: human CD30 (human, UniProt P28908 19-595)
T1 construct: whole, on cells; The target was always presented on cells; also called CD30 antigen
T1 sequence (looked up): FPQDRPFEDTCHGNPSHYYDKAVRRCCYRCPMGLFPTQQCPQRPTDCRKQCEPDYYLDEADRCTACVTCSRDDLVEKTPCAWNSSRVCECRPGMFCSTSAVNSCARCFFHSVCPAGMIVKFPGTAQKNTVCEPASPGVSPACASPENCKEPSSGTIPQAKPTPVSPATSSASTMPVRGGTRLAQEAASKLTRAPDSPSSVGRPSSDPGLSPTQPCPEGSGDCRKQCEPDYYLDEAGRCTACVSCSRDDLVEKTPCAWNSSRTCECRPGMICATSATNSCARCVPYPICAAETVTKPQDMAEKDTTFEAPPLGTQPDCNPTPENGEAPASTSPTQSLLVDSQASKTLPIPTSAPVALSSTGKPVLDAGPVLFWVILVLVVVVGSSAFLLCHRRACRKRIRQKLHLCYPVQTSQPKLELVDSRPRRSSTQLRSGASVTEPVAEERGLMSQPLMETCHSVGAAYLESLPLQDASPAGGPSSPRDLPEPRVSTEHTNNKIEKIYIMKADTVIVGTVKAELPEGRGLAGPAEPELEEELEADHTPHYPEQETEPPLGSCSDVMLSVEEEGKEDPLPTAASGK

T2: cynomolgus CD30 on PHA, Con A and rIL-2 activated cynomolgus peripheral blood mononuclear cells (cynomolgus, UniProt A0A2K5VW07 29-603)
T2 construct: whole, on cells
T2 sequence: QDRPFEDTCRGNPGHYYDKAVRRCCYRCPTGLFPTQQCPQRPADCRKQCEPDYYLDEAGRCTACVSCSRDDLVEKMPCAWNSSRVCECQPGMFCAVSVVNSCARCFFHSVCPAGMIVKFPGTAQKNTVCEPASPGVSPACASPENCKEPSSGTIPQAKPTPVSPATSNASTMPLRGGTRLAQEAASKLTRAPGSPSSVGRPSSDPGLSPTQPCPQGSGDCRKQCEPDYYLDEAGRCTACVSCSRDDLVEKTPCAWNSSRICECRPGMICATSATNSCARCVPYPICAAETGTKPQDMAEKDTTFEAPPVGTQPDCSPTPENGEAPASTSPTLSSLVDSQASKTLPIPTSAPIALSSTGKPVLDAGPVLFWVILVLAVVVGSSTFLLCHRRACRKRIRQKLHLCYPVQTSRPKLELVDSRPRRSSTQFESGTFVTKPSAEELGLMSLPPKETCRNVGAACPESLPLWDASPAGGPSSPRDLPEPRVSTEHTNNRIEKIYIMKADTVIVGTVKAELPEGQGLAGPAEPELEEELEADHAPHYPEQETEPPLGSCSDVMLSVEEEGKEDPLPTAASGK


Columns and labels:
[1] = target: T1, human CD30; test: Scatchard analysis, 125I-labelled antibody on PHA/Con A/rIL-2-activated human peripheral blood cells, 4 °C
Procedure: (§1) Human or cynomolgus peripheral blood cells were stimulated with 2 μg/ml PHA, 10 μg/ml Con A, and 50 U/ml rIL-2 and cultured in RPMI1640 media containing 10% fetal bovine serum (FBS) at 1×10⁶ cells/ml density for 3 days. On the day of the study, the cells were washed and adjusted to 2×10⁷ cells/m in binding buffer (RPMI1640+10% FBS). As a control, CD30 positive L540 cells (adjusted to 4-8×10⁶ cells/ml) were used in these studies since they express high levels of the antigen. The cells were placed on ice until the initiation of the experiment. Millipore glass fiber filter plates (MAFBN0B50) were coated with 1% nonfat dry milk in water and stored a 4° C. overnight. The plates were washed three times with 0.2 ml of binding buffer. Fifty microliters of buffer alone was added to the maximum binding wells (total binding). Twenty-five microliters of buffer alone was added to the control wells. Varying concentration of ¹²⁵I-anti-CD30 antibody was added to all wells in a volume of 25 μL. Varying concentrations of unlabeled antibody at 300-400 fold excess were added in a volume of 25 μl to control wells (non-specific binding) and 25 μl of CD30 positive L540 cells or stimulated human or cynomolgus peripheral blood cells in binding buffer were added to all wells. The plates were incubated for 2 hours at 200 RPM on a shaker at 4° C. […] The filters were removed and counted in a gamma counter. […]

[2] = target: T2, cynomolgus CD30 on PHA, Con A and rIL-2 …; test: Scatchard analysis, 125I-labelled antibody on PHA/Con A/rIL-2-activated cynomolgus peripheral blood mononuclear cells, 4 °C
Procedure: as §1

[3] = target: T1, human CD30; test: Scatchard analysis, 125I-labelled antibody on CD30 positive L540 cells, 4 °C
Procedure: as §1

[4] = target: T1, human CD30; test: cell-based or functional assay

Kd [1] | Kd [2] | Kd [3] | EC50 of ADCC, Karpas cells [4] | EC50 of ADCC, L428 cells [4] | EC50 of ADCC, L540 cells [4] | EC50 of ADCC, L1236 cells [4] | % Lysis ratio fucose-:fucose+, ADCC, Karpas cells [4] | % Lysis ratio fucose-:fucose+, ADCC, L428 cells [4] | % Lysis ratio fucose-:fucose+, ADCC, L540 cells [4] | % Lysis ratio fucose-:fucose+, ADCC, L1236 cells [4] | EC50 ratio fucose+:fucose-, ADCC, Karpas cells [4] | EC50 ratio fucose+:fucose-, ADCC, L428 cells [4] | EC50 ratio fucose+:fucose-, ADCC, L540 cells [4] | EC50 ratio fucose+:fucose-, ADCC, L1236 cells [4] | Binder
1.08 nM | 0.47 nM | 1.37 nM | 0.25 µg/mL | 0.1 µg/mL | 0.042 µg/mL | 1.22 µg/mL | – | – | – | – | – | – | – | – | fucosylated 5F11 anti-CD30 fully human monoclonal antibody (expressed in CHO DG44 cells) (antibody, IgG1, V domains shown, It was made in CHO DG44 (FUT8+/+) cells, so the carbohydrate contains fucose; also called fuc-5F11; Anti-CD30 + fucose) VH: QVQLQQWGAGLLKPSETLSLTCAVYGGSFSAYYWSWIRQPPGKGLEWIGDINHGGGTNYNPSLKSRVTISVDTSKNQFSLKLNSVTAADTAVYYCASLTAYWGQGSLVTVSS VL: DIQMTQSPTSLSASVGDRVTITCRASQGISSWLTWYQQKPEKAPKSLIYAASSLQSGVPSRFSGSGSGTDFTLTISSLQPEDFATYYCQQYDSYPITFGQGTRLEIK
– | – | – | – | – | – | – | 2.63 fold | 2.15 fold | 1.61 fold | 3.25 fold | 7.8 fold | 11.1 fold | 4.7 fold | 27.1 fold | defucosylated 5F11 anti-CD30 fully human monoclonal antibody (expressed in FUT8-/- Ms704 cells) (antibody, V domains shown) VH: QVQLQQWGAGLLKPSETLSLTCAVYGGSFSAYYWSWIRQPPGKGLEWIGDINHGGGTNYNPSLKSRVTISVDTSKNQFSLKLNSVTAADTAVYYCASLTAYWGQGSLVTVSS VL: DIQMTQSPTSLSASVGDRVTITCRASQGISSWLTWYQQKPEKAPKSLIYAASSLQSGVPSRFSGSGSGTDFTLTISSLQPEDFATYYCQQYDSYPITFGQGTRLEIK
